± gives the uncertainty stated by the source.
B1: Calcium-binding protein 2, residues 155 to 219; numbered along this chain, Q9NPB3 (parent)
chain: RELRDAFREFDTNGDGRISVGELRAALKALLGERLSQREVDEILQDVDLNGDGLVDFEEFVRMMS

Variants of: B1
Experiment: abundance fitness (aPCA) (normalised: wild type 0, dead -1); higher = more abundant; growth selection in yeast, the domain comes from the species named
Settings: Homo sapiens
E59G showed an abundance fitness of -0.171 ± 0.064. Variant E59C has an abundance fitness of 0.033 ± 0.072. E59P showed an abundance fitness of -0.1 ± 0.13. Work on E59R yielded an abundance fitness of -0.089 ± 0.056. For E59D, the abundance fitness was -0.405 ± 0.2. R1S showed an abundance fitness of -0.113 ± 0.1. With D11Y the abundance fitness was -0.651 ± 0.3. D11V gave an abundance fitness of -1.02 ± 0.092. Variant D11K has an abundance fitness of -1.16 ± 0.26. Variant D11S has an abundance fitness of -0.633 ± 0.061. D11Q showed an abundance fitness of -0.434 ± 0.099. D11L showed an abundance fitness of -0.937 ± 0.099. In the case of R34S, the abundance fitness is reported as -0.019 ± 0.071. In the case of R34G, the abundance fitness is reported as 0.032 ± 0.077. R34V showed an abundance fitness of -0.129 ± 0.088. Work on E22V yielded an abundance fitness of -0.489 ± 0.074. In the case of E22Y, the abundance fitness is reported as -0.814 ± 0.14. E22T gave an abundance fitness of -0.486 ± 0.082. With E22A the abundance fitness was -0.342 ± 0.066. E9L showed an abundance fitness of -0.201 ± 0.051. With E9R the abundance fitness was 0.085 ± 0.048. E9A gave an abundance fitness of -0.189 ± 0.071. E9V gave an abundance fitness of -0.03 ± 0.083. For E9P, the abundance fitness was -0.451 ± 0.058. With E9Q the abundance fitness was -0.032 ± 0.068. For E9F, the abundance fitness was -0.294 ± 0.16. In the case of V47P, the abundance fitness is reported as -0.394 ± 0.049. Work on V47K yielded an abundance fitness of -0.064 ± 0.11. V47N showed an abundance fitness of -0.211 ± 0.06. With V47H the abundance fitness was 0.057 ± 0.12. For V47F, the abundance fitness was -0.15 ± 0.051. Work on V47T yielded an abundance fitness of -0.041 ± 0.069. R4V gave an abundance fitness of -0.107 ± 0.049. Variant R4Y has an abundance fitness of -0.544 ± 0.36. R4K gave an abundance fitness of 0.064 ± 0.077. R4A gave an abundance fitness of -0.28 ± 0.099. For Q37N, the abundance fitness was 0.221 ± 0.25. In the case of Q37W, the abundance fitness is reported as -0.031 ± 0.099. In the case of Q37D, the abundance fitness is reported as -0.351 ± 0.42. Variant Q37R has an abundance fitness of -0.087 ± 0.077. L44E showed an abundance fitness of -0.123 ± 0.14. Work on L44I yielded an abundance fitness of 0.072 ± 0.15. L44A gave an abundance fitness of 0.116 ± 0.067. E2Y gave an abundance fitness of -0.306 ± 0.15. E2Q showed an abundance fitness of -0.114 ± 0.064. Variant E2S has an abundance fitness of -0.355 ± 0.13. With E2W the abundance fitness was -0.344 ± 0.075. For E2K, the abundance fitness was -0.158 ± 0.1. In the case of D46I, the abundance fitness is reported as -0.408 ± 0.12. D46Y showed an abundance fitness of -0.475 ± 0.22. For D46S, the abundance fitness was -0.123 ± 0.069. D46W gave an abundance fitness of -0.446 ± 0.08. Work on D46N yielded an abundance fitness of -0.2 ± 0.11. With D46M the abundance fitness was -0.42 ± 0.076. M64Y gave an abundance fitness of 0.209 ± 0.088. Variant M64K has an abundance fitness of -0.075 ± 0.15. For M64N, the abundance fitness was 0.171 ± 0.22. Variant M64E has an abundance fitness of 0.301 ± 0.42. Variant M64I has an abundance fitness of -0.014 ± 0.28. For M64S, the abundance fitness was 0.174 ± 0.08. For N13D, the abundance fitness was -0.019 ± 0.11. With N13H the abundance fitness was -0.644 ± 0.087. With N13Q the abundance fitness was -0.924 ± 0.14. For N13R, the abundance fitness was -0.477 ± 0.076. N13L showed an abundance fitness of -0.974 ± 0.1. Work on N13S yielded an abundance fitness of -0.555 ± 0.09. Work on L30C yielded an abundance fitness of 0.057 ± 0.092. With L30I the abundance fitness was -0.134 ± 0.16. Variant L30T has an abundance fitness of -0.008 ± 0.066. Variant L30K has an abundance fitness of 0.134 ± 0.083. Variant L30S has an abundance fitness of -0.216 ± 0.11. L30F showed an abundance fitness of -0.17 ± 0.083. I43H gave an abundance fitness of 0.161 ± 0.17. In the case of I43W, the abundance fitness is reported as -0.142 ± 0.056. In the case of I43A, the abundance fitness is reported as 0.254 ± 0.091. With I43S the abundance fitness was 0.08 ± 0.063. In the case of I43E, the abundance fitness is reported as 0.038 ± 0.12. R62G gave an abundance fitness of -0.025 ± 0.068. Variant R62Y has an abundance fitness of -0.2 ± 0.26. R62P showed an abundance fitness of -0.37 ± 0.074. Work on R62W yielded an abundance fitness of -0.102 ± 0.066. R62E showed an abundance fitness of -0.307 ± 0.14. Work on R62V yielded an abundance fitness of -0.074 ± 0.059. With S36T the abundance fitness was 0.012 ± 0.12. Variant S36A has an abundance fitness of 0.041 ± 0.066. In the case of S36K, the abundance fitness is reported as 0.047 ± 0.11. With S36M the abundance fitness was -0.092 ± 0.093. For S36G, the abundance fitness was -0.093 ± 0.055. Variant S36F has an abundance fitness of -0.085 ± 0.13. Variant S36I has an abundance fitness of 0 ± 0.43. S19K showed an abundance fitness of -0.529 ± 0.1. In the case of S19A, the abundance fitness is reported as -0.372 ± 0.098. With S19I the abundance fitness was -0.462 ± 0.17. In the case of S19Y, the abundance fitness is reported as -0.822 ± 0.28. In the case of S19D, the abundance fitness is reported as -0.059 ± 0.19. S19L showed an abundance fitness of -0.532 ± 0.085. S19P showed an abundance fitness of -0.43 ± 0.081. With S19M the abundance fitness was -0.285 ± 0.39. S19F gave an abundance fitness of -0.462 ± 0.19. Work on F10W yielded an abundance fitness of -0.076 ± 0.11. F10E showed an abundance fitness of -0.445 ± 0.059. Variant F10L has an abundance fitness of -0.449 ± 0.062. G14P showed an abundance fitness of -0.621 ± 0.081. Variant G14Q has an abundance fitness of 0.023 ± 0.077. Work on G14K yielded an abundance fitness of 0.003 ± 0.11. Work on G14T yielded an abundance fitness of -0.547 ± 0.12. Work on G14M yielded an abundance fitness of -0.308 ± 0.11. For D56K, the abundance fitness was -0.103 ± 0.067. With D56V the abundance fitness was 0.044 ± 0.077. D56I gave an abundance fitness of -0.12 ± 0.099. In the case of D56G, the abundance fitness is reported as -0.031 ± 0.041. In the case of D56S, the abundance fitness is reported as 0.078 ± 0.082. D56E gave an abundance fitness of 0.12 ± 0.095. For V40G, the abundance fitness was -0.055 ± 0.065. For V40R, the abundance fitness was 0.108 ± 0.045. With V40T the abundance fitness was -0.187 ± 0.12. V40D showed an abundance fitness of 0.043 ± 0.13. D52C gave an abundance fitness of -0.124 ± 0.091. Work on D52R yielded an abundance fitness of -0.149 ± 0.064. With D52Y the abundance fitness was -0.18 ± 0.072. In the case of D52M, the abundance fitness is reported as -0.168 ± 0.086. D52E gave an abundance fitness of 0.043 ± 0.068. Variant D52P has an abundance fitness of -0.145 ± 0.09. Work on L35G yielded an abundance fitness of 0.088 ± 0.069. With L35R the abundance fitness was 0.096 ± 0.069. L35A showed an abundance fitness of 0.1 ± 0.082. In the case of L35H, the abundance fitness is reported as 0.061 ± 0.18. L35N showed an abundance fitness of 0.091 ± 0.26. For L35W, the abundance fitness was 0.045 ± 0.087. For L35E, the abundance fitness was -0.109 ± 0.12. Work on L35S yielded an abundance fitness of -0.031 ± 0.073. Work on L31Y yielded an abundance fitness of -0.064 ± 0.18. In the case of L31W, the abundance fitness is reported as -0.26 ± 0.16. Variant L31K has an abundance fitness of 0.134 ± 0.095. In the case of L31F, the abundance fitness is reported as 0.047 ± 0.13. With L31E the abundance fitness was 0.069 ± 0.082. In the case of L31T, the abundance fitness is reported as 0.074 ± 0.1. For L31P, the abundance fitness was 0.028 ± 0.079. T12Q showed an abundance fitness of -0.148 ± 0.13. Variant T12H has an abundance fitness of 0.039 ± 0.23. Work on T12E yielded an abundance fitness of -0.087 ± 0.13. In the case of T12N, the abundance fitness is reported as 0.007 ± 0.22. T12S showed an abundance fitness of -0.035 ± 0.072. With T12P the abundance fitness was -0.695 ± 0.12. Work on I18N yielded an abundance fitness of -1.01 ± 0.33. Work on I18L yielded an abundance fitness of 0.114 ± 0.054. In the case of I18R, the abundance fitness is reported as -0.808 ± 0.073. Variant I18T has an abundance fitness of -0.763 ± 0.11. I18E showed an abundance fitness of -1.01 ± 0.17. In the case of I18Y, the abundance fitness is reported as -0.592 ± 0.27. For I18G, the abundance fitness was -0.97 ± 0.12. With I18K the abundance fitness was -0.691 ± 0.17. With I18A the abundance fitness was -0.736 ± 0.095. In the case of I18D, the abundance fitness is reported as -0.965 ± 0.22. Variant I18V has an abundance fitness of -0.045 ± 0.13. I18P showed an abundance fitness of -1.15 ± 0.22. Variant G32P has an abundance fitness of -0.026 ± 0.3. G32D showed an abundance fitness of -0.29 ± 0.17. With G32I the abundance fitness was -0.438 ± 0.32. With G32N the abundance fitness was -0.246 ± 0.12. D41V gave an abundance fitness of -0.237 ± 0.076. D41C showed an abundance fitness of -0.059 ± 0.14. For D41A, the abundance fitness was -0.151 ± 0.071. Variant D41K has an abundance fitness of -0.095 ± 0.062. With D41P the abundance fitness was -0.221 ± 0.14. Variant D41L has an abundance fitness of -0.305 ± 0.092. For D41W, the abundance fitness was -0.158 ± 0.075.
